Assay results reported in patent publication US20230365658A1.
Several values for one entry are separate records, joined by “and”; a condition that tells them apart may be missing. Equal values may be shown once. Read-outs that look alike come from different tables or passages of the source.

What was measured:
[1] = molecular target: COV2-RBD (rpk9) B.1.1.529 (BA.1) (SARS-CoV-2); assay: Gyrolab immunoassay, reference titration, relative binding (%)
[2] = molecular target: COV2-RBD (rpk9) B.1.1.529 (BA.1) (SARS-CoV-2)
[3] = molecular target: COV2-RBD (rpk9) Wuhan-Hu-1 (WT) (SARS-CoV-2)
[4] = molecular target: COV2-RBD (rpk9) Wuhan-Hu-1 (WT) (SARS-CoV-2); remark: listed apart in the source
[5] = molecular target: SARS-CoV-2 Spike-RBD, Delta (SARS-CoV-2) (UniProt P0DTC2); assay: Gyrolab immunoassay, reference titration, relative binding (%)
[6] = molecular target: COV2-RBD (rpk9) B.1.1.529 (BA.1) (SARS-CoV-2); assay: Gyrolab full-curve immunoassay (LLNL Gyros) on RBD
[7] = molecular target: COV2-RBD (rpk9) Wuhan-Hu-1 (WT) (SARS-CoV-2); assay: Gyrolab full-curve immunoassay (LLNL Gyros) on RBD
[8] = molecular target: COV2-RBD (rpk9) B.1.1.529 (BA.1) (SARS-CoV-2); assay: Gyrolab immunoassay, IgG titrated on Spike-RBD, relative binding (FI)
[9] = molecular target: COV2-RBD (rpk9) Wuhan-Hu-1 (WT) (SARS-CoV-2); assay: as above
[10] = molecular target: COV2-RBD (rpk9) B.1.1.529 (BA.1) (SARS-CoV-2); assay: Gyros full-curve immunoassay, mAb titrated on RBD, relative binding (FI)
[11] = molecular target: COV2-RBD (rpk9) Wuhan-Hu-1 (WT) (SARS-CoV-2); assay: as above
[12] = molecular target: SARS-CoV-2 Spike-RBD, Delta (SARS-CoV-2) (UniProt P0DTC2); assay: as above
[13] = molecular target: SARS-CoV-2 spike (S) glycoprotein, Omicron BA.1 (SARS-CoV-2) (UniProt P0DTC2); assay: cell-based or functional assay
[14] = molecular target: SARS-CoV-2 spike (S) glycoprotein, Omicron BA.1.1 (SARS-CoV-2) (UniProt P0DTC2); assay: cell-based or functional assay
[15] = molecular target: SARS-CoV-2 spike (S) glycoprotein, Omicron BA.2 (SARS-CoV-2) (UniProt P0DTC2); assay: cell-based or functional assay
[16] = molecular target: SARS-CoV-2 spike (S) glycoprotein, Omicron BA.4 (SARS-CoV-2) (UniProt P0DTC2); assay: cell-based or functional assay
[17] = molecular target: SARS-CoV-2 spike (S) glycoprotein, Delta (B.1.617.2) (SARS-CoV-2) (UniProt P0DTC2); assay: cell-based or functional assay
[18] = molecular target: SARS-CoV-2 spike (S) glycoprotein, Omicron BA.5.5 (SARS-CoV-2) (UniProt P0DTC2); assay: cell-based or functional assay

Substance: COV2-2130 (antibody)
- EC50 (read off the curve) [1]: 2 µg/mL
- EC50 [2]: 2.77 µg/mL and 1.75 µg/mL
- EC50 [3]: 1.72 µg/mL and 0.675 µg/mL
- EC50 (read off the curve) [4]: 0.8 µg/mL

Substance: S309 (antibody)
- EC50 (read off the curve) [1]: 6 µg/mL
- EC50 (read off the curve) [5]: 2 µg/mL
- AUC(logC) [6]: 53.2
- AUC(logC) [7]: 60.6
- EC50 (read off the curve) [8]: 4 µg/mL
- EC50 (read off the curve) [9]: 2 µg/mL
- EC50 [2]: 17.2 µg/mL
- EC50 [3]: 5.76 µg/mL
- EC50 (read off the curve) [4]: 2 µg/mL
- EC50 (read off the curve) [10]: 4 µg/mL
- EC50 (read off the curve) [11]: 2 µg/mL
- EC50 (read off the curve) [12]: 2 µg/mL
- pseudovirus neutralization IC50 [13]: 0.0632 µg/mL
- pseudovirus neutralization IC50 [14]: 0.0332 µg/mL
- pseudovirus neutralization IC50 [15]: 0.109 µg/mL

Substance: rDENV-2D22 (antibody)
- authentic virus neutralization IC50 (FRNT) [16]: > 10 µg/mL
- normalized pseudoneutralization IC50 [16]: > 10 µg/mL
- authentic virus neutralization IC50 (FRNT) [17]: > 10 µg/mL
- authentic virus neutralization IC50 (FRNT) [13]: > 10 µg/mL
- authentic virus neutralization IC50 (FRNT) [14]: > 10 µg/mL
- normalized pseudoneutralization IC50 [14]: > 10 µg/mL
- authentic virus neutralization IC50 (FRNT) [18]: > 10 µg/mL

Substance: rS2K146 (antibody)
- normalized pseudoneutralization IC50 [16]: 0.036 µg/mL
- normalized pseudoneutralization IC50 [13]: 0.00438 µg/mL
- normalized pseudoneutralization IC50 [14]: 0.00209 µg/mL
- normalized pseudoneutralization IC50 [15]: 0.00336 µg/mL
